Test [1] has as its system neuroblastoma cells G1-LIN. The test can be described thus: Apoptosis by FACS analysis of DNA content (below 2N). Type of test: cell-based. As to conditions: 30 hours. On the procedure:
FACS analysis of the DNA content stained with propidium J^− of the neuroblastoma cells G1-LIN after […] treatment (10 nM, panel C; 100 nM panel B). The treatment of the samples was done for 30 hours. As a control samples treated with SC34 were used (100 nM, panel D) or not treated (panel A). At the bottom of each panel the representative percentage of the cell cycle phase distributions obtained are indicated (G1/S/G2-M). (A) indicates apoptotic cells.
(Flow cytometry measures light scatter and fluorescence of single cells or particles in a stream.)

Test [2] deals with DSBs in human or rodent cell lines (U2OS, HEK-293, MCF-7, HCT116, WI83, IMR90, MEF). Put plainly: TUNEL assay for DSB induction in vivo. It is filed as cell-based. As to the method:
[…] was assayed with terminal deoxynucleotidyl transferase (TdT) dUTP-FITC, in a TUNEL reaction (In Situ Cell Death Detection Kit, Roche Diagnostic, Mannheim Germany) which marks DSBs in vivo. The assay was done after fixation of the cells in 4% paraformaldehyde in PBS, 0.1% Triton. After the TUNEL reaction the cells are counter-stained with propidium J. The use of derivatives impaired in the nuclease activity like the construct SC34 as a negative control, allows to estimate background activities. […] This aspect makes the system described in the invention by far more efficient as compared to endonucleases induced from transcriptional units or compared to any of the other type of protein transfection like electroporation, or precipitations with calcium phosphate or libid-derivatives i.e. lipofectin.

B1: SCPVUTAT: single chain PvuII endonuclease (aa 1-157, GSGG linker, aa 2-157) fused to HIV Tat peptide and six histidine tag; SEQ ID NO:2 (protein, listed as Proteus vulgaris)
chain: MSHPDLNKLLELWPHIQEYQDLALKHGINDIFQDNGGKLLQVLLITGLTVLPGREGNDAVDNAGQEYELKSINIDLTKGFSTHHHMNPVIIAKYRQVPWIFAIYRGIAIEAIYRLEPKDLEFYYDKWERKWYSDGHKDINNPKIPVKYVMEHGTKIYGSGGSHPDLNKLLELWPHIQEYQDLALKHGINDIFQDNGGKLLQVLLITGLTVLPGREGNDAVDNAGQEYELKSINIDLTKGFSTHHHMNPVIIAKYRQVPWIFAIYRGIAIEAIYRLEPKDLEFYYDKWERKWYSDGHKDINNPKIPVKYVMEHGTKIYGSYGRKKRRQRRRGGSHHHHHH
Take B1: the apoptotic cells in test [1] (10 nM) is 18%; in test [1] (100 nM), “more than 29%”. Moreover, the TUNEL positive cells in test [2] (10 minutes after treatment, all cell types tested) is on record as 90-100%. For the same molecule, in test [2] (few minutes of treatment, concentration in culture supernatant as low as 10 nM), the TUNEL activity entry is on record as “significant TUNEL activity in most of the cells”.

(Values after US20150018409A1, “CHIMERIC POLYPEPTIDES AND THEIR USE” (ADRIACELL S.P.A., priority 2003, published 2015).)
